Biological target: T1, mouse GLP1R (Mus musculus, UniProt O35659)
T1 construct: expressed in transfected cells
T1 sequence (O35659 22-463): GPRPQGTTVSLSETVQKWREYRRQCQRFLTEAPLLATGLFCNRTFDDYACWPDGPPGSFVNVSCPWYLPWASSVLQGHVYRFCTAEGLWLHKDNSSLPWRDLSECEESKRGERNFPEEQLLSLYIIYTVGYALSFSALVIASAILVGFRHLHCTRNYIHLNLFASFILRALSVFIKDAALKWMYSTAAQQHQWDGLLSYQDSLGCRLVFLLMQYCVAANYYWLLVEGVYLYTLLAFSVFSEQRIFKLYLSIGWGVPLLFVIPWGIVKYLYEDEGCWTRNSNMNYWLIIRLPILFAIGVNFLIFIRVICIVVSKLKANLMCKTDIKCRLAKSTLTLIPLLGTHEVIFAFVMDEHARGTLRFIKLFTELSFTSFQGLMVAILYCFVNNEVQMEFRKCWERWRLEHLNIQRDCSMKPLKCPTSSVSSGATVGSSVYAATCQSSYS
Test: mouse GLP1 receptor cAMP assay
Format: cell-based
Conditions: HEK293 cells
Protocol: For each receptor assay, the clonal cells were seeded into 384-well plates at the appropriate densities ranging from 2000-5000 cells/per well. Compounds were diluted in HBSS supplemented with 5 mM HEPES, 0.1% BSA and 0.5 mM IBMX and added to the cells. […] Standard curves were included in each assay plate for back calculation of cAMP concentrations.

Dulaglutide: the GLP1R agonist, dulaglutide [reference compound]
EC50: 0.035 ± 0.002 nM
